From patent publication US5336615 come the findings set out here.

The target of this assay is human plasminogen (human) (UniProt P00747).

As for “bovine urokinase-type plasminogen activator (u-PA) (from UniProt Q05589) (enzyme)”, the u-PA activity (mPU/µg cell protein) was 4.9.
